# How the values were obtained:
# Blanks dsRBD2 mutant = assay: fluorescence anisotropy; conditions: n=3; assay buffer not given (as in ref 39); protein final buffer 100 mM KAc pH 7.4, 10 mM HEPES pH 7.4, 2 mM MgAc, 5 mM DTT (protein diluted 1:3 into it, then …)
# [1] = tested on: Blanks wild-type (cDNA variant); assay: fluorescence anisotropy; conditions: n=3; assay buffer not given (as in ref 39); protein final buffer 100 mM KAc pH 7.4, 10 mM HEPES pH 7.4, 2 mM MgAc, 5 mM DTT (protein diluted 1:3 into it, then …)
substance,measurement,setting,value
23 nt ds siRNA (21 bp),Kd,Blanks dsRBD2 mutant,666 nM
same,Kd,[1],177 nM

# — publication PMC7144943
